Test results taken from the supplement of paper PMC7125110.
± gives the standard error. For part of these data: Fewer inactive variants are shown than the library holds.

B1: glmS ribozyme (parent)
chain: AUAAAAGCGCCAGAACUACAGAAAUGUAGUUGACGAGGAGGAGGUUUAUCGAAUUUUCGGCGGAUGCCUCCAAA

Assays:
Conditions in all cases: with glucosamine-6-phosphate
glucosamine-6-phosphate [1] = variants of: B1; test: kcat; higher = faster cleavage; RNA array
Method in brief: (§1)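 Over ~14 h at 37 °C, tiles were imaged as glucosamine-6-phosphate (40 μM to 10 mM) in HEPES/KCl/Mg(OAc)2 buffer flowed across sequenced MiSeq chips. The chips carried barcoded ribozyme variants transcribed in situ by E. coli RNA polymerase and tracked with a hybridised Cy3 probe. After normalisation to baseline and to non-cleaving reference variants, one- or two-exponential decay fits of per-tile medians gave kobs. kcat and KM followed from weighted Michaelis–Menten fits across concentrations.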

glucosamine-6-phosphate [2] = variants of: B1; test: self-cleavage kobs at 40 uM GlcN6P; higher = faster cleavage; RNA array
Method in brief: as §1

glucosamine-6-phosphate [3] = variants of: B1; test: self-cleavage kobs at 160 uM GlcN6P; higher = faster cleavage; RNA array
Method in brief: as §1

glucosamine-6-phosphate [4] = variants of: B1; test: self-cleavage kobs at 640 uM GlcN6P; higher = faster cleavage; RNA array
Method in brief: as §1

glucosamine-6-phosphate [5] = variants of: B1; test: self-cleavage kobs at 2500 uM GlcN6P; higher = faster cleavage; RNA array
Method in brief: as §1

glucosamine-6-phosphate [6] = variants of: B1; test: self-cleavage kobs at 10000 uM GlcN6P; higher = faster cleavage; RNA array
Method in brief: as §1

glucosamine-6-phosphate [7] = variants of: B1; test: KM; higher = weaker cofactor use; RNA array
Method in brief: as §1

## C11U U54G
glucosamine-6-phosphate [1]
  kcat: 0.00114 ± 0.00053 s⁻¹
glucosamine-6-phosphate [2]
  self-cleavage kobs at 40 uM GlcN6P: 5.3e-05 ± 1.1e-05 s⁻¹
glucosamine-6-phosphate [3]
  self-cleavage kobs at 160 uM GlcN6P: 0.000153 ± 2.1e-05 s⁻¹
glucosamine-6-phosphate [4]
  self-cleavage kobs at 640 uM GlcN6P: 0.000277 ± 3.9e-05 s⁻¹
glucosamine-6-phosphate [5]
  self-cleavage kobs at 2500 uM GlcN6P: 0.000642 ± 9.5e-05 s⁻¹
glucosamine-6-phosphate [6]
  self-cleavage kobs at 10000 uM GlcN6P: 0.00164 ± 0.00025 s⁻¹

## C11U U54C
glucosamine-6-phosphate [1]
  kcat: 0.00157 ± 0.00021 s⁻¹
glucosamine-6-phosphate [7]
  KM: 990 ± 210 µM
glucosamine-6-phosphate [2]
  self-cleavage kobs at 40 uM GlcN6P: 6.42e-05 ± 1.2e-05 s⁻¹
glucosamine-6-phosphate [3]
  self-cleavage kobs at 160 uM GlcN6P: 0.000204 ± 9.2e-05 s⁻¹
glucosamine-6-phosphate [4]
  self-cleavage kobs at 640 uM GlcN6P: 0.000616 ± 0.00017 s⁻¹
glucosamine-6-phosphate [5]
  self-cleavage kobs at 2500 uM GlcN6P: 0.00092 ± 0.00024 s⁻¹
glucosamine-6-phosphate [6]
  self-cleavage kobs at 10000 uM GlcN6P: 0.00167 ± 0.00033 s⁻¹

## C10A U65A
glucosamine-6-phosphate [1]
  kcat: 1.06e-05 ± 3e-06 s⁻¹

## G9C G60A
glucosamine-6-phosphate [1]
  kcat: < 1e-05 s⁻¹
glucosamine-6-phosphate [4]
  self-cleavage kobs at 640 uM GlcN6P: < 1e-05 s⁻¹

## C10G C68G
glucosamine-6-phosphate [1]
  kcat: 5.21e-05 ± 1.5e-05 s⁻¹
glucosamine-6-phosphate [4]
  self-cleavage kobs at 640 uM GlcN6P: 4.42e-05 ± 1.8e-05 s⁻¹
glucosamine-6-phosphate [5]
  self-cleavage kobs at 2500 uM GlcN6P: 4.78e-05 ± 1.7e-05 s⁻¹

## C10G U54A
glucosamine-6-phosphate [1]
  kcat: < 1e-05 s⁻¹
glucosamine-6-phosphate [2]
  self-cleavage kobs at 40 uM GlcN6P: < 1e-05 s⁻¹

## A12C A39C
glucosamine-6-phosphate [1]
  kcat: 0.000611 ± 4.3e-05 s⁻¹
glucosamine-6-phosphate [7]
  KM: 2060 ± 260 µM
glucosamine-6-phosphate [2]
  self-cleavage kobs at 40 uM GlcN6P: 1.91e-05 ± 9.4e-06 s⁻¹
glucosamine-6-phosphate [3]
  self-cleavage kobs at 160 uM GlcN6P: 3.75e-05 ± 7.9e-06 s⁻¹
glucosamine-6-phosphate [4]
  self-cleavage kobs at 640 uM GlcN6P: 0.000149 ± 1.2e-05 s⁻¹
glucosamine-6-phosphate [5]
  self-cleavage kobs at 2500 uM GlcN6P: 0.000343 ± 3e-05 s⁻¹
glucosamine-6-phosphate [6]
  self-cleavage kobs at 10000 uM GlcN6P: 0.000499 ± 4.2e-05 s⁻¹

## A12C C58G
glucosamine-6-phosphate [1]
  kcat: 0.0002 ± 2.6e-05 s⁻¹
glucosamine-6-phosphate [7]
  KM: 1730 ± 640 µM
glucosamine-6-phosphate [4]
  self-cleavage kobs at 640 uM GlcN6P: 6.55e-05 ± 1.8e-05 s⁻¹
glucosamine-6-phosphate [5]
  self-cleavage kobs at 2500 uM GlcN6P: 0.000106 ± 1.8e-05 s⁻¹
glucosamine-6-phosphate [6]
  self-cleavage kobs at 10000 uM GlcN6P: 0.000177 ± 2.2e-05 s⁻¹

## C11G C68G
glucosamine-6-phosphate [1]
  kcat: 2.12e-05 ± 7.1e-06 s⁻¹

## C11U U45C
glucosamine-6-phosphate [1]
  kcat: 9.44e-05 ± 1.8e-05 s⁻¹
glucosamine-6-phosphate [5]
  self-cleavage kobs at 2500 uM GlcN6P: 6.5e-05 ± 1.3e-05 s⁻¹
glucosamine-6-phosphate [6]
  self-cleavage kobs at 10000 uM GlcN6P: 7.59e-05 ± 1e-05 s⁻¹

## C10A G38C
glucosamine-6-phosphate [1]
  kcat: < 1e-05 s⁻¹
glucosamine-6-phosphate [3]
  self-cleavage kobs at 160 uM GlcN6P: < 1e-05 s⁻¹
glucosamine-6-phosphate [4]
  self-cleavage kobs at 640 uM GlcN6P: < 1e-05 s⁻¹

## C11U G41A
glucosamine-6-phosphate [1]
  kcat: 8.97e-05 ± 1e-05 s⁻¹
glucosamine-6-phosphate [4]
  self-cleavage kobs at 640 uM GlcN6P: 3.01e-05 ± 1.2e-05 s⁻¹
glucosamine-6-phosphate [5]
  self-cleavage kobs at 2500 uM GlcN6P: 8.81e-05 ± 1.8e-05 s⁻¹
glucosamine-6-phosphate [6]
  self-cleavage kobs at 10000 uM GlcN6P: 7.91e-05 ± 8.6e-06 s⁻¹

## C11U G41U
glucosamine-6-phosphate [1]
  kcat: 9.92e-05 ± 3.5e-06 s⁻¹
glucosamine-6-phosphate [7]
  KM: 740 ± 130 µM
glucosamine-6-phosphate [4]
  self-cleavage kobs at 640 uM GlcN6P: 4.38e-05 ± 1.5e-05 s⁻¹
glucosamine-6-phosphate [5]
  self-cleavage kobs at 2500 uM GlcN6P: 8.28e-05 ± 1.7e-05 s⁻¹
glucosamine-6-phosphate [6]
  self-cleavage kobs at 10000 uM GlcN6P: 9.12e-05 ± 1e-05 s⁻¹

## C10U C70A
glucosamine-6-phosphate [1]
  kcat: 2.4e-05 ± 6e-06 s⁻¹
glucosamine-6-phosphate [5]
  self-cleavage kobs at 2500 uM GlcN6P: 3.1e-05 ± 1.5e-05 s⁻¹

## C11U A12U U56C
glucosamine-6-phosphate [1]
  kcat: 0.00124 ± 0.00036 s⁻¹
glucosamine-6-phosphate [2]
  self-cleavage kobs at 40 uM GlcN6P: 5.74e-05 ± 1.7e-05 s⁻¹
glucosamine-6-phosphate [4]
  self-cleavage kobs at 640 uM GlcN6P: 0.000258 ± 5e-05 s⁻¹
glucosamine-6-phosphate [5]
  self-cleavage kobs at 2500 uM GlcN6P: 0.000639 ± 0.00015 s⁻¹
glucosamine-6-phosphate [6]
  self-cleavage kobs at 10000 uM GlcN6P: 0.00106 ± 0.00015 s⁻¹

## C10A G13A
glucosamine-6-phosphate [1]
  kcat: < 1e-05 s⁻¹
glucosamine-6-phosphate [2]
  self-cleavage kobs at 40 uM GlcN6P: < 1e-05 s⁻¹
glucosamine-6-phosphate [3]
  self-cleavage kobs at 160 uM GlcN6P: < 1e-05 s⁻¹

## A12C U69A
glucosamine-6-phosphate [1]
  kcat: 0.000833 ± 0.00013 s⁻¹
glucosamine-6-phosphate [7]
  KM: 4330 ± 1100 µM
glucosamine-6-phosphate [4]
  self-cleavage kobs at 640 uM GlcN6P: 0.000117 ± 2.1e-05 s⁻¹
glucosamine-6-phosphate [5]
  self-cleavage kobs at 2500 uM GlcN6P: 0.00027 ± 4.6e-05 s⁻¹
glucosamine-6-phosphate [6]
  self-cleavage kobs at 10000 uM GlcN6P: 0.000614 ± 9.4e-05 s⁻¹

## G9A G13U
glucosamine-6-phosphate [1]
  kcat: < 1e-05 s⁻¹
glucosamine-6-phosphate [5]
  self-cleavage kobs at 2500 uM GlcN6P: < 1e-05 s⁻¹
glucosamine-6-phosphate [6]
  self-cleavage kobs at 10000 uM GlcN6P: < 1e-05 s⁻¹

## C11U A12C
glucosamine-6-phosphate [1]
  kcat: 9.58e-05 ± 3.4e-06 s⁻¹
glucosamine-6-phosphate [7]
  KM: 1050 ± 120 µM
glucosamine-6-phosphate [4]
  self-cleavage kobs at 640 uM GlcN6P: 3.76e-05 ± 7e-06 s⁻¹
glucosamine-6-phosphate [5]
  self-cleavage kobs at 2500 uM GlcN6P: 6.24e-05 ± 1.2e-05 s⁻¹
glucosamine-6-phosphate [6]
  self-cleavage kobs at 10000 uM GlcN6P: 8.81e-05 ± 9e-06 s⁻¹
